Bridges are numbered along the chain shown (N, C = ends). Primed or numbered codes have the meaning given here. Where no end group is shown, it is not given here. [ ]: non-standard residue; d: D form. The star is where a group is joined. DOTA = O=C(O)CN1CCN(CC(=O)O)CCN(CC(=O)*)CCN(CC(=O)O)CC1; Biotin = O=C1N[C@H]2[C@H](CS[C@H]2CCCCC(=O)*)N1; Lys(Me3) = C[N+](C)(C)CCCC[C@H](N)C(=O)O; Arg(Me2s) = CN=C(NC)NCCC[C@H](N)C(=O)O; Cit = NC(=O)NCCC[C@H](N)C(=O)O; PEG4″ = 4(ethylene glycol); PEG4′ = not defined here
T1: Human Nectin-4 (human, UniProt Q96NY8 32-349, limits assumed)
T1 construct: Protein immobilised on the SPR chip; also called target protein
T1 sequence: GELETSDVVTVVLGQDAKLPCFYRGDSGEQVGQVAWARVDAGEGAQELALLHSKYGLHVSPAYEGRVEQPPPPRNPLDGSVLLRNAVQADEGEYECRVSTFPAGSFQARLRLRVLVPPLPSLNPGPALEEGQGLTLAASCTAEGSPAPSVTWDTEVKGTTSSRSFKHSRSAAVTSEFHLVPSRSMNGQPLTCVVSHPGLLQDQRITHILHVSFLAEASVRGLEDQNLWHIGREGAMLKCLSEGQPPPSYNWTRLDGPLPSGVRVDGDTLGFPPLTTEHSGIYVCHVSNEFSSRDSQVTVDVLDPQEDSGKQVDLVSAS

T2: Human Nectin-4 expressed on cells (human, UniProt Q96NY8 32-510)
T2 construct: Endogenous on HT-1376 cells; also called endogenous Nectin-4 on HT-1376 cells; cell surface Nectin-4
T2 sequence: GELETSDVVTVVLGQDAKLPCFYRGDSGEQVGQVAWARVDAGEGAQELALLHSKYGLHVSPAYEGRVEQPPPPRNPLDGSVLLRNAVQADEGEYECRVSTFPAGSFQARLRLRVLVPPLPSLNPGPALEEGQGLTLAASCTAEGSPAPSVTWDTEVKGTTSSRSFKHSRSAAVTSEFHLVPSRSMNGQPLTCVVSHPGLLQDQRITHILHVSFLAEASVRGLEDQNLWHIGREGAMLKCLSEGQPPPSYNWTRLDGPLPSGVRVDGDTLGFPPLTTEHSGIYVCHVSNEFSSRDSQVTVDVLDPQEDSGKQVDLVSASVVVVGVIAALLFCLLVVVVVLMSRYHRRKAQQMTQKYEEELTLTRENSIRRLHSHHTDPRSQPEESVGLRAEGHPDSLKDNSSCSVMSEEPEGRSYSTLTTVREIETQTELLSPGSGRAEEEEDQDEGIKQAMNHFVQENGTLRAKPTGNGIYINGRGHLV


Tests used:
[1] = molecular target: T1, Human Nectin-4; experiment: Table 2B (DELFIA or SPR)
[2] = molecular target: T2, Human Nectin-4 expressed on cells; experiment: radioligand binding, 177Lu-labelled compound, HT-1376 cells
Procedure: On the day of assay, culture medium was removed and PBS was added to cells. Association kinetics were measured at three concentrations of radioligand, and this was performed by the addition of lutetium-177 radioconjugates to cells at various time points from 1 to 60 minutes.

[3] = molecular target: T1, Human Nectin-4; experiment: SPR, Biacore T200, target immobilised, 1:1 model
Procedure: Surface plasmon resonance (SPR) analyses were performed using Biacore T200 (GE Healthcare). Target protein (“ligand”) was immobilized to a CM5 Series S sensor chip (Cytiva) using amine-coupling chemistry. Running buffer was 0.05% surfactant P20 in HEPES buffered saline (HBS-P), pH 7.4 (Cytiva). Immobilization was performed at 25° C. Carboxyl groups in each flow cell were activated using a 1:1 mixture of 0.4 M 1-ethyl-3-(3-dimethylaminopropyl)-carbodiimide in water (EDC) and 0.1 M N-hydroxysuccinimide in water (NHS) for 7 minutes. The ligand was prepared in 10 mM sodium acetate pH 5 (Cytiva). Pulsatile injections were made to target a specific immobilization level. Any remaining amine-reactive esters on the chip surface were blocked with a 7-minute injection of 1 M ethanolamine, pH 8.5. Three 10-second pulses of 50 mM sodium hydroxide were then made to remove any unbound ligand. Reference cells were modified using amine coupling chemistry, omitting ligand injection.
Increase in signal (RU) is proportional to an increase in binding events between the analyte and ligand surface. The injection was then stopped, and dissociation was measured. […] Measured association (kₐ, 1/Ms⁻¹) and dissociation (kd, s⁻¹) were fit to a 1:1 binding model to calculate a dissociation equilibrium constant, KD(M) for each analyte.

[4] = molecular target: T2, Human Nectin-4 expressed on cells; experiment: DELFIA whole-cell competition against a europium-chelate miniprotein
Procedure: A whole cell binding assay was used to estimate the equilibrium binding affinity (KD) or binding inhibition constant (Kᵢ) of miniprotein ligands to cells expressing a target of interest. Cells were dispensed into a 384-well plate and incubated at 37° C. in 5% CO₂ overnight. The next day cells were gently washed once in assay buffer prior to addition of europium chelated ligand. […] For Kᵢ determination, a single concentration (KD equivalent concentration) of europium-chelate miniprotein was added to each well followed immediately by the addition of unconjugated competing ligand over 12 different concentrations ranging from 100 times below and above expected Kᵢ values as before. […] Cells were then washed three times at room temperature with 1×PBS followed by the addition of 2 M HCl and incubated for two h at 37° C. Following this step, 2 M NaOH and fluorescent inducer solution were added to each well and incubated for 30 minutes at room temperature according to the manufacturer's protocol (Perkin-ELMER DELFIA assay). Plates were read on an Envision plate reader and a curve-fitting model was applied to estimate KD and Kᵢ values using GraphPad Prism software.

Row | Binder | Kd [1] | Ki [4] | further results
1 | Ac-CEYDEQFFTALARLRGGDICYYIQEQFATVPGLCIEEILDQLGC-NH2 (designed binder, disulfide 1-34, 20-44) [C128] | 10100 pM |  | 
2 | Ac-CEYDEQFFTALSSLRGGDICYYIQEQFANVPGICIEEILDNLGC (designed binder, disulfide 1-34, 20-44) [C136] | 36500 pM |  | 
3 | {DOTA-PEG4″}-CEYDEEFFTALKRLRGGDICYYIKKKFKKVPKLCIEEILDKLGC-NH2 (designed binder, disulfide 1-34, 20-44; also: 177Lu-labelled in radioligand assay) [C82] |  |  | Kd [2]: 14100 pM
4 | {Biotin-PEG4″}-CEYDEQFFTALARLRGGDICYYIQEQFATVPGLCIEEILDQLGCS-OH (designed binder, disulfide 1-34, 20-44) [C131] | 12400 pM |  | 
5 | {Biotin-PEG4″}-CDYDEQFFTALA[Cit]LRGGDICEYIQA[Lys(Me3)]FQYLPGLCIEEILDNLGCS-OH (designed binder, disulfide 1-34, 20-44) [C259] |  |  | Kd [3]: 226 pM
6 | {DOTA-PEG4″}-CEYDEEFFTALKRLRGGDICYYIQASFQYLPGLCIEEILDNLGCS (designed binder, disulfide 1-34, 20-44; also: 177Lu-labelled in radioligand assay) [C109] |  |  | Kd [2]: 8720 pM
7 | {Biotin-PEG4″}-CEYDEQFFTALARLRGGDICEYIQARFQYLPGLCIEEILDNLGCS (designed binder, disulfide 1-34, 20-44) [C264] |  | 530 pM | Kd [3]: 476 pM
8 | {Biotin-PEG4″}-CDYDEQFFTALKRLRGGDICEYIQA[Lys(Me3)]FQYLPGECIEEILDNLGCS-OH (designed binder, disulfide 1-34, 20-44) [C255] |  | 660 pM | 
9 | {Biotin-PEG4″}-CEYDEQFFTALARLRGADICEYIQARFQYLPGLCIEEILDNLGCS-OH (designed binder, disulfide 1-34, 20-44) [C280] |  | 540 pM | 
10 | {Biotin-PEG4″}-CDYDEQFFTALKRLRGADICEYIQA[Lys(Me3)]FQYLPGECIEEILDNLGCS-OH (designed binder, disulfide 1-34, 20-44) [C257] |  | 660 pM | 
11 | {Biotin-PEG4″}-CEYDEQFFTALARLRGADICEYIQA[Lys(Me3)]FQYLPGLCIEEILDNLGCS-OH (designed binder, disulfide 1-34, 20-44) [C262] |  | 1040 pM | 
12 | {DOTA-PEG4″}-CEYDEEFFTALKRLRGGDICYYIQAKFQYLPKLCIEEILDNLGCS (designed binder, disulfide 1-34, 20-44; also: 177Lu-labelled in the radioligand assay) [C117] |  |  | Kd [2]: 2640 pM
13 | {Biotin-PEG4″}-CEYDEEFFTALARLRGADICQYIQA[Lys(Me3)]FQYLPALCIEEILDNLGCS-OH (designed binder, disulfide 1-34, 20-44) [C252] |  | 760 pM | 
14 | {Biotin-PEG4″}-CEYDEQFFTALARLRGGDICEYIQA[Arg(Me2s)]FQYLPGLCIEEILDNLGCS (designed binder, disulfide 1-34, 20-44) [C267] |  | 760 pM | Kd [3]: 586 pM
15 | Ac-CEYDEQFFTALKALRGGDICYYIQASFNYLPDLCIEEILDNLGC-NH2 (designed binder, disulfide 1-34, 20-44) [C112] | 6240 pM |  | 
16 | {DOTA-PEG4′}-CEYDEEFFTALKRLRGGDICYYIKKKFKKVPKLCIEEILDKLGC-NH2 (designed binder, cysteine pairing not given here; also: 177Lu label on DOTA) [C215] |  |  | Kd [2]: 5010 pM
17 | {DOTA-PEG4″}-CEYDEEFFTALKRLRGGDICYYIKKKFDYLPKLCIEEILDNLGC-NH2 (designed binder, disulfide 1-34, 20-44; also: 177Lu-labelled in the radioligand assay) [C214] |  |  | Kd [2]: 3030 pM
18 | {Biotin-PEG4″}-CEYDEQFFTALSSLRGGDICYYIQEQFANVPGICIEEILDNLGCS (designed binder, disulfide 1-34, 20-44) [C139] | 25200 pM |  | 
19 | {Biotin-PEG4″}-CEYDEEFFTALARLRGDDICSYIQAKFQYLPGLCIEEILDNLGCS-OH (designed binder, disulfide 1-34, 20-44) [C143] | 550 pM |  | Kd [3]: 238 pM
20 | {Biotin-PEG4″}-CEYDEEFFTALARLRGGDICQYIQAKFQYLPGQCIEEILDNLGCS (designed binder, disulfide 1-34, 20-44) [C149] | 750 pM |  | Kd [3]: 297 pM
21 | {Biotin-PEG4″}-CEYDEQFFTALKRLRGADICSYIQASFQYLPGLCIEEILDNLGCS (designed binder, disulfide 1-34, 20-44) [C185] | 1000 pM |  | Kd [3]: 371 pM
